Data on 13 molecules can be found in PMC7710722, “A nanobody suite for yeast scaffold nucleoporins provides details of the nuclear pore complex structure” (Nature Communications, 2020).

Conditions in all cases: both partners purified
Test [1] concerns the target T1, Nup133 (analyte of the BLI of Table 1) (Saccharomyces cerevisiae (strain ATCC …, UniProt P36161)).
T1 construct: Nup133, S. cerevisiae; source: E. coli, recombinant
Kind of test: BLI; biotinylated, C-terminally Avi-tagged nanobody immobilised on streptavidin tips, nup as analyte in twofold dilution series; 10 mM Tris/HCl pH 7.5, 150 mM NaCl, 1 mM DTT, 0.1 mM EDTA, 0.05% Tween-20, 0.1% BSA; global 1:1 kinetic fit. In general terms: BLI is a label-free optical method that tracks binding on a fibre tip over time.

In test [2] the target is T2, Nup85 (analyte of the BLI of Table 1) (Saccharomyces cerevisiae S288c, UniProt P46673).
T2 construct: Nup85, S. cerevisiae; the analyte may have been a complex with Seh1; source: E. coli, recombinant
The test is described as above.

In test [3] the target is T3, Nup120 (analyte of the BLI of Table 1) (Saccharomyces cerevisiae S288c, UniProt P35729).
T3 construct: Nup120, S. cerevisiae; source: E. coli, recombinant
T3 sequence (P35729 whole entry): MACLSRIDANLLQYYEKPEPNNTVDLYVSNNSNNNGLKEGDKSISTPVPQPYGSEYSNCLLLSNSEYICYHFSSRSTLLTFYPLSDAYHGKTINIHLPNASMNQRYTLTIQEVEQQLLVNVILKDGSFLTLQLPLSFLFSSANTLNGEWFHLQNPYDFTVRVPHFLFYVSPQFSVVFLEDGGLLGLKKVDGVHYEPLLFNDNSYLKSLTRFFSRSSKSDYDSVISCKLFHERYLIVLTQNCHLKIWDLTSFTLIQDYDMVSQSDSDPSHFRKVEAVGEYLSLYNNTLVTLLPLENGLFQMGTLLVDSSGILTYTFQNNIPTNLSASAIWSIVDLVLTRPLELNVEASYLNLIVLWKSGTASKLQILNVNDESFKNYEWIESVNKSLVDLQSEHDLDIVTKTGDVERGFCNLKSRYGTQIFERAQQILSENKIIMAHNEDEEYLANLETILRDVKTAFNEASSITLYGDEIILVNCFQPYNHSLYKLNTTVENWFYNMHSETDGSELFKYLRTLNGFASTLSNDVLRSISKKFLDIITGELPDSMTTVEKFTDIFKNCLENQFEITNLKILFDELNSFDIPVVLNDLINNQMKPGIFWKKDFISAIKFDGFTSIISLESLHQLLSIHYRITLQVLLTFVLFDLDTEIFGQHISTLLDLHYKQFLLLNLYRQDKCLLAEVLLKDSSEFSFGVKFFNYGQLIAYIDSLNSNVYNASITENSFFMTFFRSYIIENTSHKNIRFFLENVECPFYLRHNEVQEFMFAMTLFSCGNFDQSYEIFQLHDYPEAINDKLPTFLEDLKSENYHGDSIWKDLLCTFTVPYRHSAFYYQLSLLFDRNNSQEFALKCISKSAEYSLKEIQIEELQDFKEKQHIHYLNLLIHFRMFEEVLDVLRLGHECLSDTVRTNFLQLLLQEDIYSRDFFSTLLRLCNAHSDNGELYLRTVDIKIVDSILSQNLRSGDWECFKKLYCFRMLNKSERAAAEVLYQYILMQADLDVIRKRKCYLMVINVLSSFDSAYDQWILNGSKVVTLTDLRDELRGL
The test is described as above.

For test [4], the target named is T4, Nup84 (S. cerevisiae, UniProt P52891).
T4 construct: Nup84, S. cerevisiae; limits not given; source: E. coli LOBSTR-RIL(DE3), purified (Ni Sepharose, 3C protease, HiTrap SP FF flow-through, Superdex S200)
T4 sequence (P52891 whole entry): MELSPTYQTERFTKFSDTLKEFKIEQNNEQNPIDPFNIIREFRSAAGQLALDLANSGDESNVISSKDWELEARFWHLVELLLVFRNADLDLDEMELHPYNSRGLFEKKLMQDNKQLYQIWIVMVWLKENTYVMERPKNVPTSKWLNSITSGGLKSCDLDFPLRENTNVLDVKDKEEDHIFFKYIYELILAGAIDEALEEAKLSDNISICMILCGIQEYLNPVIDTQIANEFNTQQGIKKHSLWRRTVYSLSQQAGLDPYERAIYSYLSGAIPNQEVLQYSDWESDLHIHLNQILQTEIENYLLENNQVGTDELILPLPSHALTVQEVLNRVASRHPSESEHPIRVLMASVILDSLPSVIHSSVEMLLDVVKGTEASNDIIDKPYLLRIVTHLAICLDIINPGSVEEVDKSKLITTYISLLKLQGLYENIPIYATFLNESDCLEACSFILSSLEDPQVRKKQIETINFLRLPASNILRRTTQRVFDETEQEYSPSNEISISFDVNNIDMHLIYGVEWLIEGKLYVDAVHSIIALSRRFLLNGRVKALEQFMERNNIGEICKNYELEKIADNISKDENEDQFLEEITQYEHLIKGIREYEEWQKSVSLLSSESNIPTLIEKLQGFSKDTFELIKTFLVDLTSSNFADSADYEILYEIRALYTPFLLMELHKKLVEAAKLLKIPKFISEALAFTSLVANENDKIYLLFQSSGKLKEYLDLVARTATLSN
Described as above.

In test [5] the target is T5, Nic96_(186–839) (Saccharomyces cerevisiae S288c, UniProt P34077).
T5 construct: The only Nic96 construct in the methods; source: E. coli LOBSTR-RIL(DE3), purified (Ni Sepharose, 3C protease, Superdex S200)
The test is described as above.

The target of test [6] is T6, Nup85_(1–564) (S. cerevisiae, UniProt P46673 1-564).
T6 construct: Nup85, S. cerevisiae, residues 1-564 (crown and trunk modules); The Nup85 chain of m31, written alone for the pairs that touch in the structure 6X08; also called Nup85_(trunk-crown); Nup85_(crown-trunk); source: E. coli LOBSTR-RIL(DE3), purified together with Seh1
T6 sequence (looked up): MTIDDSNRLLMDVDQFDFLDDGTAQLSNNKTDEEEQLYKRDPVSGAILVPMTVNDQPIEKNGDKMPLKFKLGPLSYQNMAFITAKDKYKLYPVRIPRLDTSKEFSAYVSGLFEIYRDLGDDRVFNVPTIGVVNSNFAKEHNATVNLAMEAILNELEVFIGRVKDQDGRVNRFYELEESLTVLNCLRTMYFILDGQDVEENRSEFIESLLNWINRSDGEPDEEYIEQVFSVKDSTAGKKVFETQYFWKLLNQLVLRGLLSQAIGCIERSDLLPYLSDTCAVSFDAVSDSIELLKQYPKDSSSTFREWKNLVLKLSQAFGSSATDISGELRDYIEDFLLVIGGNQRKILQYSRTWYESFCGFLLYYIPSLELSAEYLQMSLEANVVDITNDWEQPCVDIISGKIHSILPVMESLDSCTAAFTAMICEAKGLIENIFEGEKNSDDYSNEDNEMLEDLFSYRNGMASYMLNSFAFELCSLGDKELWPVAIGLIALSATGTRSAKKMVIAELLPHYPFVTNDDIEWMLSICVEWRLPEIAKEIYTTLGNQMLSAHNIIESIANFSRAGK
The test can be described thus: crystal structure; nup-nanobody complexes crystallised at 18 °C; solved by molecular replacement.

Test [7] addresses T7, Sec13 (analyte of the BLI of Table 1) (Saccharomyces cerevisiae S288c, UniProt Q04491).
T7 construct: Sec13, S. cerevisiae; The analyte may have been Sec13 fused to the Nup145C insertion blade; source: E. coli, recombinant
Kind of test: BLI; biotinylated, C-terminally Avi-tagged nanobody immobilised on streptavidin tips, nup as analyte in twofold dilution series; 10 mM Tris/HCl pH 7.5, 150 mM NaCl, 1 mM DTT, 0.1 mM EDTA, 0.05% Tween-20, 0.1% BSA; global 1:1 kinetic fit.

Test [8] concerns the target T8, fusion construct of Nup145C-Sec13 (Saccharomyces cerevisiae S288c, UniProt P49687;Q04491).
T8 construct: Nup145C, the C-terminal product of Nup145, S. cerevisiae; named among the 'full-length nups'; Sec13, S. cerevisiae; source: E. coli
Kind of test: SEC; nup and nanobody incubated 30 min on ice, then Superdex S75 or S200 10/300 in 150 mM NaCl, 10 mM Tris/HCl pH 7.5, 1 mM DTT, 0.1 mM EDTA. Background: Size exclusion chromatography separates by hydrodynamic size, large species first.

Test [9] addresses T9, Nup120-Nup85-Seh1-Nup145C-Sec13 (Saccharomyces cerevisiae S288c, UniProt P35729;P46673;P53011;P49687;Q04491).
T9 construct: Nup120, S. cerevisiae; Nup85, S. cerevisiae; Seh1, S. cerevisiae; Nup145C, the C-terminal product of Nup145, S. cerevisiae, residues 34-712; Sec13, S. cerevisiae; Nup145C and Sec13 may stand on one chain as in the fusion construct; also called assembled Y complex hub; source: E. coli, purified; assembled from Nup85-Seh1 and Nup120-Nup145C_(34–712)-Sec13 on Superdex S200; copies: + + + +
Described as above.

T1 sequence (P36161 whole entry): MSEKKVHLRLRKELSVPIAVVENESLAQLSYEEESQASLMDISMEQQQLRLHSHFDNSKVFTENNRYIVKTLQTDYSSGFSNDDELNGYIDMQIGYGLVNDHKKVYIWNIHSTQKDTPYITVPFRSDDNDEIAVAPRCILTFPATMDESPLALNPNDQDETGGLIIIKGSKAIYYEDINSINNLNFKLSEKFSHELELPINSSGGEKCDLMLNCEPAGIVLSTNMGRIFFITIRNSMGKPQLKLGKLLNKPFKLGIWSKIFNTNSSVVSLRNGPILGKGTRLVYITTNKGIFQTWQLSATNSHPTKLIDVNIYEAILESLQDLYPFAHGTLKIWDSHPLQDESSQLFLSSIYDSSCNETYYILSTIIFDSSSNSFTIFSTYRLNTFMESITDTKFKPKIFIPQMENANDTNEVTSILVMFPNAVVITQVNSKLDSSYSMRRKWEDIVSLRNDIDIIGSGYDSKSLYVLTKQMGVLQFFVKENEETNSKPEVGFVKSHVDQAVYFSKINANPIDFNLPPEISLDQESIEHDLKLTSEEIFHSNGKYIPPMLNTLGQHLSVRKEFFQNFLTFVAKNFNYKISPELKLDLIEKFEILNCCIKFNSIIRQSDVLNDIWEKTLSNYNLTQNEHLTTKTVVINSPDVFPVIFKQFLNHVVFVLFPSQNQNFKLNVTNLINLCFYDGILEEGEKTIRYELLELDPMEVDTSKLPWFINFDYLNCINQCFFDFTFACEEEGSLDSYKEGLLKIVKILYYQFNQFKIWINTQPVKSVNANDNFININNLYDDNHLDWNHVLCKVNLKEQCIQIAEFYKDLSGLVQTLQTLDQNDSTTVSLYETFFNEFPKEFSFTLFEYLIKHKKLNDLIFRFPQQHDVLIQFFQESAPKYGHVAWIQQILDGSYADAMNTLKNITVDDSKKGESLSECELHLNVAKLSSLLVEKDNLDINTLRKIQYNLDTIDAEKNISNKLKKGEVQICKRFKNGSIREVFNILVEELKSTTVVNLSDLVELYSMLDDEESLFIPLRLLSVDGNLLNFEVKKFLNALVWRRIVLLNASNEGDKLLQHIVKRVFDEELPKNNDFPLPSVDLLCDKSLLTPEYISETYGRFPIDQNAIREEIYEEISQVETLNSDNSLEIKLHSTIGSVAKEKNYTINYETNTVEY
T7 sequence (Q04491 whole entry, the tested form may be a part): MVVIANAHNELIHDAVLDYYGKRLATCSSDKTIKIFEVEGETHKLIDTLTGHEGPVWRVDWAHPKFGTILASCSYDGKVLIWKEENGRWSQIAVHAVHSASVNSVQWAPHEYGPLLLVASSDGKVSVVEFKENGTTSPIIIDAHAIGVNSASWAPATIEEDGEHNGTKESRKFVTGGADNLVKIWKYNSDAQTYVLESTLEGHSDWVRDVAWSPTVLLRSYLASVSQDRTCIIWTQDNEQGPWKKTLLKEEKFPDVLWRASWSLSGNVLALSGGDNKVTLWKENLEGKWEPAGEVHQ

B1: VHH-SAN5 with biotinylated C-terminal Avi-tag (VHH)
VHH: QVQLVESGGGLVQAGGSLRLSCAASGSIGSLDAMAWYRRAPGKQRERVASISRYGTYYVDSVKGRFTISRDNAKNTVYLQMNSLKPEDTGVYYCKGVMEVGGVIDEYWGQGTQVTVSS
notes: Separate Avi-tagged construct used for BLI; source: E. coli LOBSTR-RIL(DE3), biotin added to the culture, purified (Ni Sepharose, SEN-p protease, Superdex S75); not shown: 14xHis, N-terminal, cleaved; bdSUMO, N-terminal, cleaved; Avi-tag, C-terminal, kept
In test [1], B1 came in with a Kd of 10 nM, a koff of 0.0028 s⁻¹ and a kon of 280000 M⁻¹ s⁻¹.

B2: VHH-SAN1 with biotinylated C-terminal Avi-tag (VHH)
VHH: QVQLVETGGGLVPPGGSLKLSCAVSGDILRVQTMGWYRQAPGKQRELVAAFTGGGRTNYADSMKGRFTISRDNAKNTVFLQMNSLKPEDTAVYYCRADIAAVRPWPLQEYWGQGTQVTVSS
notes: as for B1
In test [2], B2 registered a Kd of 0.58 nM, a koff of 0.0014 s⁻¹ and a kon of 2.3e+06 M⁻¹ s⁻¹.

B3: VHH-SAN10 with biotinylated C-terminal Avi-tag (VHH)
VHH: QVQLVETGGGLVQAGGSLRLSCVVSGRTFSSYAMGWFRQAPGKEREFVSGINWSGGSAYYGDSVKGRFTISRDNAKNTVYLQMNSLKPEDTAVYYCVADRAWRGTTWRADSSYDYWGQGTQVTVSS
notes: deposited with PDB 6X06, but no density for VHH-SAN10 in the map; Separate Avi-tagged construct used for BLI; source: E. coli LOBSTR-RIL(DE3), biotin added to the culture, purified (Ni Sepharose, SEN-p protease, Superdex S75); not shown: 14xHis, N-terminal, cleaved; bdSUMO, N-terminal, cleaved; Avi-tag, C-terminal, kept
B3: in test [3], the Kd worked out at 0.38 nM, the koff came to 0.00017 s⁻¹ and the kon was determined as 450000 M⁻¹ s⁻¹.

B4: VHH-SAN4 with biotinylated C-terminal Avi-tag (VHH)
VHH: QLQLVESGGGSVQAGGSLTLSCTASESISKRIHGIGWFRQRRGEQREEIAYITTGGRPNLGDSVKDRFTISRDKSNGTVYLQMNSLKPEDTAVYYCHGRGRWWGTEGRLDYWGQGTQVTVSS
notes: as for B1
In test [1], B4 gave a Kd of 230 nM, a koff of 0.22 s⁻¹ and a kon of 950000 M⁻¹ s⁻¹.

B5: VHH-SAN2 with biotinylated C-terminal Avi-tag (VHH)
VHH: QVQLVETGGGLVQPGGSLRLSCAASGFTLDDYAIGWFRQAPGKEREGVSCISRSGGSTTYTDSVKGRFTISRDNAENTVYLQMNSLKPEDTAVYYCAAARTRGTCWLNRIGMDYWGKGTQVTVSS
notes: also in PDB 6X08; Separate Avi-tagged construct used for BLI; source: E. coli LOBSTR-RIL(DE3), biotin added to the culture, purified (Ni Sepharose, SEN-p protease, Superdex S75); not shown: 14xHis, N-terminal, cleaved; bdSUMO, N-terminal, cleaved; Avi-tag, C-terminal, kept
In [2], B5 gave a Kd of 0.08 nM, a koff of 8.1e-05 s⁻¹ and a kon of 1e+06 M⁻¹ s⁻¹.

B6: VHH-SAN8 with biotinylated C-terminal Avi-tag (VHH)
VHH: QLQLVETGGGLVQAGGSLRLSCVASGRTFTSYAMGWFRQAPGKEREFVAAISRLASGTDYADSVKGRFTISRNNDKNTVYLQMNNLIPEDTAVYYCAALQALRFSLPIAMATMKNGRADSWGQGTQVTVSS
notes: as for B1
For B6, in [4], the Kd came to 0.063 nM, the koff turned out to be 2.2e-05 s⁻¹ and the on-rate (kon) came out at 350000 M⁻¹ s⁻¹.

B7: VHH-SAN11 with biotinylated C-terminal Avi-tag (VHH)
VHH: QVQLVETGGGLVRAGGSLRLSCVDSGRTFRVYTMGWFRQAPGKEREFVAAIRWSGDRTYYGDPVQGRFTISRDKGKNTVYLQMNSLKPEDTAVYYCAAPAGGGVVYDDHKAYAYWGQGTQVTVS
notes: also in PDB 6X06; Separate Avi-tagged construct used for BLI; source: E. coli LOBSTR-RIL(DE3), biotin added to the culture, purified (Ni Sepharose, SEN-p protease, Superdex S75); not shown: 14xHis, N-terminal, cleaved; bdSUMO, N-terminal, cleaved; Avi-tag, C-terminal, kept
For B7, in test [3], the affinity, expressed as Kd, was 0.79 nM; the dissociation rate constant (koff) came to 0.00078 s⁻¹; the kon was 980000 M⁻¹ s⁻¹.

B8: VHH-SAN12 with biotinylated C-terminal Avi-tag (VHH)
VHH: QVQLVETGGGLVQAGGSLRLSCATSGFNFRLRTMGWYRQAPGKERELVASITSGGSTDYADSVKGRFTISRDNAKNTISLEMNSLKPDDTAVYYCNIWAPTTAAITNWGQGTQVTVSS
notes: also in PDB 6X07; Separate Avi-tagged construct used for BLI; source: E. coli LOBSTR-RIL(DE3), biotin added to the culture, purified (Ni Sepharose, SEN-p protease, Superdex S75); not shown: 14xHis, N-terminal, cleaved; bdSUMO, N-terminal, cleaved; Avi-tag, C-terminal, kept
On to B8, for which, in test [5], the Kd was 1.3 nM, the koff was found to be 0.0024 s⁻¹ and the kon was found to be 1.8e+06 M⁻¹ s⁻¹.

B9: VHH-SAN3 with biotinylated C-terminal Avi-tag (VHH)
VHH: QVQLVESGGGLVQAGGSLRLSCFASGGTFSRYDMGWFRQAPGKEREFVARITRGGRVADYAAFVEGRFTISRDNAKNTVYLQMNSLKPEDTGIYFCAGKDAGVFDFYLWGQGTQVTVSS
notes: as for B1
In the case of B9, in test [2], the Kd is 0.014 nM, the koff turned out to be 8.1e-06 s⁻¹ and the kon was found to be 580000 M⁻¹ s⁻¹.

B10: Seh1 (natural protein, S. cerevisiae)
chain: MQPFDSGHDDLVHDVVYDFYGRHVATCSSDQHIKVFKLDKDTSNWELSDSWRAHDSSIVAIDWASPEYGRIIASASYDKTVKLWEEDPDQEECSGRRWNKLCTLNDSKGSLYSVKFAPAHLGLKLACLGNDGILRLYDALEPSDLRSWTLTSEMKVLSIPPANHLQSDFCLSWCPSRFSPEKLAVSALEQAIIYQRGKDGKLHVAAKLPGHKSLIRSISWAPSIGRWYQLIATGCKDGRIRIFKITEKLSPLASEESLTNSNMFDNSADVDMDAQGRSDSNTEEKAELQSNLQVELLSEHDDHNGEVWSVSWNLTGTILSSAGDDGKVRLWKATYSNEFKCMSVITAQQ
notes: Seh1, S. cerevisiae; Used alone in SEC with VHH-SAN1; also written alone for its contact with Nup85(1-564) in the structure 6X08; also called Seh1 alone; source: E. coli
For the molecule B10, in [6], the binding result is given as “binds”.

B11: VHH-SAN7 with biotinylated C-terminal Avi-tag (VHH)
VHH: QVQLVETGGGLVQPGGSLRLSCVASGSIFGINAMGWYRQAPGNQRELVASIRSDFGTTKYADSVKGRFTISRGNARTTVYLQMNSLKPEDTAVYYCRIWSADGNYWGQGTQVTVSS
notes: as for B1
In test [7], B11 registered a Kd of 0.51 nM, a koff of 0.00065 s⁻¹ and an on-rate (kon) of 1.3e+06 M⁻¹ s⁻¹.

B12: VHH-SAN7 (VHH)
VHH: B11 VHH
notes: source: E. coli LOBSTR-RIL(DE3), purified (Ni Sepharose, SEN-p protease, Superdex S75); not shown: 14xHis, N-terminal, cleaved; bdSUMO, N-terminal, cleaved
In the case of B12, the binding result in [8] and in test [9] was “binds” throughout.

B13: VHH-SAN9 with biotinylated C-terminal Avi-tag (VHH)
VHH: QVQLVESGGGSVQAGGSLRLSCAVSGGTLSTLAMGWFRQAPGQEREFVARIGWTNGDTGYADSVKGRFTISRDNVKNTVYLQMNNLKPEDTALYYCATRRPYGSTLYPPNTESAHDNWGQGTQVTVSS
notes: as for B1
For B13, in test [4], the Kd was determined as 0.17 nM, the koff was 7.7e-05 s⁻¹ and the kon was 440000 M⁻¹ s⁻¹.

As a reminder, the Kd is the concentration at which binding is half-saturated. Read a low Kd as higher affinity. Broadly, the koff is a measure of how fast the partners let go of each other. Low readings indicate slow dissociation, high ones fast dissociation. Broadly, the kon is the rate constant with which the complex forms.
